# Data: patent publication US20230125614A1
# Molecular target: ARC40-GFP bait (S. cerevisiae ARC40, member of the Arp2/3 complex, fused with a C-terminal GFP epitope tag) (Saccharomyces cerevisiae) (UniProt P38328)
# Test: low-throughput in vivo mRNA display co-purification, individually cloned ORFs, anti-GFP bead IP of ARC40-GFP
row,Display Score,Substance
1,1.8,in vivo mRNA display library protein ARP2 (MCP-ARP2 fusion with purification tag) (from UniProt P32381 1-391)
2,1.9,"in vivo mRNA display protein MYO3 (MCP-MYO3 fusion, individually cloned for the low-throughput experiment) (from UniProt P36006 1-1272)"

# Molecular target: ARC40-GFP bait (S. cerevisiae ARC40, member of the Arp2/3 complex, fused with a C-terminal GFP epitope tag) (Saccharomyces cerevisiae) (UniProt P38328)
# Test: in vivo mRNA display co-purification, pooled yeast library, anti-GFP bead IP of ARC40-GFP, NGS read-out
row,Display Score,Substance
1,3.3,in vivo mRNA display library protein ARC18 (MCP-ARC18 fusion with purification tag) (from UniProt Q05933 1-178)
2,3.9,in vivo mRNA display library protein ARC19 (MCP-ARC19 fusion with purification tag) (from UniProt P33204 1-171)
3,3.7,in vivo mRNA display library protein ARC35 (MCP-ARC35 fusion with purification tag) (from UniProt P53731 1-342)
4,0.55,in vivo mRNA display library protein ARP2 (MCP-ARP2 fusion with purification tag) (from UniProt P32381 1-391)
